# ± gives the uncertainty stated by the source.
# B1: Transcription factor SOX-4, residues 60 to 127; numbered along this chain, Q06945 (parent)
# chain: KRPMNAFMVWSQIERRKIMEQSPDMHNAEISKRLGKRWKLLKDSDKIPFIREAERLRLKHMADYPDYK
# Variants of: B1
# Assay: abundance fitness (aPCA) (normalised: wild type 0, dead -1); higher = more abundant; growth selection in yeast, the domain comes from the species named
# Conditions: Homo sapiens
row,Variant,abundance fitness
1,S22A,-0.074 ± 0.082
2,S22G,-0.4 ± 0.041
3,S22D,-0.034 ± 0.05
4,S22K,-0.191 ± 0.049
5,S22W,0.016 ± 0.053
6,S22E,-0.027 ± 0.052
7,S22V,-0.272 ± 0.042
8,S22Y,0.066 ± 0.054
9,S22M,-0.276 ± 0.055
10,S22P,-0.745 ± 0.18
11,S22H,-0.01 ± 0.061
12,S22L,-0.458 ± 0.057
13,S22T,-0.326 ± 0.094
14,S22F,0.106 ± 0.05
15,S22R,-0.211 ± 0.038
16,I18Y,-0.285 ± 0.21
17,I18K,-0.892 ± 0.17
18,I18H,-0.627 ± 0.2
19,I18W,-0.787 ± 0.082
20,I18M,-0.169 ± 0.066
21,I18A,-0.484 ± 0.21
22,I18Q,-0.948 ± 0.3
23,I18V,-0.482 ± 0.086
24,I18E,-0.63 ± 0.12

row,Variant,abundance fitness
1,I18T,-0.701 ± 0.22
2,I18F,-0.351 ± 0.15
3,I18C,-0.278 ± 0.45
4,I18S,-0.665 ± 0.13
5,K36E,0.325 ± 0.071
6,K36H,-0.141 ± 0.15
7,K36P,-0.722 ± 0.18
8,K36A,-0.019 ± 0.071
9,K36S,-0.098 ± 0.11
10,K36G,-0.416 ± 0.08
11,K36D,-0.362 ± 0.25
12,K36R,-0.075 ± 0.061
13,K36V,0.057 ± 0.063
14,K36L,-0.105 ± 0.057
15,K36F,-0.053 ± 0.13
16,K36C,-0.482 ± 0.28
17,K36N,0.04 ± 0.24
18,K36I,0.143 ± 0.36
19,I30M,-0.254 ± 0.063
20,I30C,-0.277 ± 0.046
21,I30V,0.022 ± 0.037
22,I30Q,-0.7 ± 0.078
23,I30E,-0.8 ± 0.092
24,I30W,-0.875 ± 0.089

row,Variant,abundance fitness
1,I30Y,-0.8 ± 0.11
2,I30F,-0.912 ± 0.11
3,I30G,-0.769 ± 0.055
4,I30K,-0.999 ± 0.12
5,I30S,-0.858 ± 0.071
6,I30A,-0.605 ± 0.1
7,I30P,-0.976 ± 0.18
8,I30T,-0.661 ± 0.12
9,I30D,-0.871 ± 0.11
10,I30H,-1.11 ± 0.17
11,W38G,-0.744 ± 0.05
12,W38F,-1.08 ± 0.16
13,W38D,-0.67 ± 0.091
14,W38E,-0.799 ± 0.1
15,W38H,-0.548 ± 0.14
16,W38C,-0.849 ± 0.076
17,W38A,-1.01 ± 0.1
18,M25Q,-0.595 ± 0.15
19,M25A,-0.019 ± 0.058
20,M25V,-0.125 ± 0.065
21,M25S,-0.416 ± 0.086
22,M25Y,-0.679 ± 0.21
23,M25R,-0.591 ± 0.068
24,M25D,-0.397 ± 0.091

row,Variant,abundance fitness
1,M25G,-0.713 ± 0.092
2,M25E,-0.323 ± 0.093
3,M25T,-0.189 ± 0.078
4,M25W,-0.672 ± 0.12
5,M25C,-0.258 ± 0.1
6,M25K,-0.216 ± 0.082
7,M25F,-0.614 ± 0.29
8,M25I,0.004 ± 0.4
9,A28E,-0.078 ± 0.069
10,A28C,-0.351 ± 0.15
11,A28K,-0.099 ± 0.086
12,A28R,-0.132 ± 0.052
13,A28T,-0.234 ± 0.066
14,A28I,-0.463 ± 0.29
15,A28W,-0.242 ± 0.062
16,A28V,-0.169 ± 0.063
17,A28S,-0.029 ± 0.052
18,A28Q,-0.145 ± 0.076
19,A28D,-0.152 ± 0.12
20,A28G,-0.166 ± 0.054
21,A28L,-0.195 ± 0.068
22,K17Y,-0.421 ± 0.095
23,K17L,-0.215 ± 0.052
24,K17M,-0.401 ± 0.13

row,Variant,abundance fitness
1,K17N,-0.262 ± 0.17
2,K17Q,-0.092 ± 0.078
3,K17V,-0.318 ± 0.1
4,K17I,-0.178 ± 0.14
5,K17S,-0.439 ± 0.075
6,K17W,-0.87 ± 0.13
7,K17P,-0.987 ± 0.23
8,E29K,-0.691 ± 0.24
9,E29A,-0.199 ± 0.071
10,E29Q,-0.367 ± 0.068
11,E29C,-0.394 ± 0.2
12,E29P,-0.162 ± 0.15
13,E29S,-0.539 ± 0.094
14,E29I,-0.916 ± 0.19
15,E29M,-0.225 ± 0.12
16,E29L,-0.518 ± 0.067
17,E29G,-0.628 ± 0.089
18,E29W,-0.84 ± 0.18
19,E29R,-0.883 ± 0.1
20,E29T,-0.348 ± 0.12
21,E29D,-0.074 ± 0.062
22,E29H,-0.879 ± 0.46
23,R37H,-0.313 ± 0.25
24,R37A,0.133 ± 0.053

row,Variant,abundance fitness
1,R37M,-0.067 ± 0.13
2,R37L,-0.364 ± 0.097
3,R37I,-0.371 ± 0.21
4,R37F,-0.714 ± 0.21
5,R37E,0.043 ± 0.07
6,R37D,-0.035 ± 0.091
7,R37P,-0.811 ± 0.16
8,R37V,-0.2 ± 0.06
9,R37T,-0.05 ± 0.089
10,R37K,0.052 ± 0.078
11,R37C,-0.366 ± 0.2
12,R37N,0.101 ± 0.29
13,R37Q,-0.093 ± 0.21
14,N27H,0.059 ± 0.049
15,N27K,-0.03 ± 0.052
16,N27V,-0.07 ± 0.041
17,N27M,-0.043 ± 0.054
18,N27P,0.184 ± 0.076
19,N27F,-0.245 ± 0.057
20,N27A,0.004 ± 0.055
21,N27G,-0.103 ± 0.033
22,N27T,-0.049 ± 0.051
23,N27Y,-0.179 ± 0.052
24,N27S,0.07 ± 0.049

row,Variant,abundance fitness
1,N27D,0.147 ± 0.045
2,N27W,-0.019 ± 0.057
3,N27C,-0.164 ± 0.055
4,N27R,-0.112 ± 0.044
5,N27L,-0.162 ± 0.038
6,N27I,-0.192 ± 0.054
7,G35L,0.168 ± 0.041
8,G35S,0.173 ± 0.035
9,G35Q,0.302 ± 0.2
10,G35W,0.142 ± 0.058
11,G35H,0.178 ± 0.051
12,G35C,0.095 ± 0.045
13,G35N,0.015 ± 0.056
14,G35A,0.171 ± 0.048
15,G35D,0.116 ± 0.05
16,G35P,-0.496 ± 0.13
17,G35I,0.156 ± 0.042
18,G35T,0.15 ± 0.049
19,G35K,0.262 ± 0.083
20,G35Y,0.119 ± 0.05
21,G35E,0.262 ± 0.057
22,G35R,0.19 ± 0.037
23,G35V,0.134 ± 0.037

# Source: the Human Domainome abundance scans (Beltran et al. 2025)
